Data: PMC11616004, “Metabolite phosphatase from anhydrobiotic tardigrades” (The Febs Journal, 2024)

Legend:
DRB0118 = target: T1, DRB0118 (Deinococcus radiodurans, UniProt Q9RZK8); test: malachite green phosphate release; format: biochemical; details: 1 mM substrate, 20 mM Tris-HCl pH 8.0, 37 °C, 1 h; MBP fusion
T1 construct: gene DR_B0118; residues 58-337, signal peptide removed; N-terminal MBP fusion kept, 6xHis cut by TEV; codon-optimized, E. coli BL21(DE3); mainly dimer in solution
T1 sequence (Q9RZK8 58-337): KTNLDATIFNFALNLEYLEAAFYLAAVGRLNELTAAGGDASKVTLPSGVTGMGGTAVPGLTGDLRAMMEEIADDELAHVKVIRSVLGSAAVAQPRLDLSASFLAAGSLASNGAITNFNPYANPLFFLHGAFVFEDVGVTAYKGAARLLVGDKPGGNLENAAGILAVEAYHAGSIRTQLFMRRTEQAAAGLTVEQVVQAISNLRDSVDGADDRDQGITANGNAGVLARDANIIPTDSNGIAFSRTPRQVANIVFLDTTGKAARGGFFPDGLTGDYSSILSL

[1] = target: the molecule itself; test: native gel or EMSA; high‐resolution clear native PAGE of the purified sample (EzApply Native, EzStandard Native, EzRun ClearNative, ATTO)
[2] = target: the molecule itself; test: crystal structure; sitting-drop vapor diffusion at 20 °C, RvFeMP‐1 at 10 mg/mL; conditions A (MES pH 6.0, PEG 20000), B (MgCl2, Tris–HCl pH 8.2, PEG 4000) and C (sodium thiocyanate, sodium acetate pH 4.0, PEG4000); dimer of two protomers

O=[N+]([O-])c1ccc(OP(=O)(O)O)cc1 [pNPP, p-nitrophenyl phosphate]
activity (nmol/min/mg) (DRB0118): can also function as a phosphatase and the activity toward pNPP was higher

B1: MBP‐DRB0118 (DRB0118 residues 58–337 fused to maltose‐binding protein) (enzyme, Deinococcus radiodurans R1)
chain: T1 sequence (Q9RZK8 58-337)
notes: DRB0118 of Deinococcus radiodurans R1, residues 58–337, without the signal peptide region; codon-optimised synthetic DNA; The MBP carrier (amplified from pMAL‐c5X) stands N-terminal of DRB0118 and was kept; After TEV cleavage one G of the site probably stays before MBP (surmised); source: E. coli BL21(DE3), purified (HiTrap TALON, TEV protease, HisTrap flowthrough, Superdex 200 SEC); not shown: …
stoichiometry N [1]: 2

B2: RvFeMP‐1 (Ramazzottius varieornatus Ferritin‐like metabolite phosphatase 1), residues 21–316 (enzyme)
chain: GGNRGMSRNQDAYAEKMDMTLDALNFLLGVEHLASAFYVQAVNNFTADDFKAAGLAQRDYDQFVGVRNNEVDHRDTLISVIKSLGGKPNPPCKYTFPVTDVASVLKVSRTLENADKPAYLGALRDIKSVELRTSVQGALSGDSAHAAFFAYLTGKAPAPGPVDGPLTQRHIATLAQDFIVSCPYPAPKPFPKLTLSPQSGPVGTVVATTCAQDVDTNGVMCAIISGNQGTLMQRPGQAKDGSGAATCTIPPGVKGILFIAWVRGRDVLNVGVDDSSTVCGPNYFLLSALGDAVPGV
notes: RvFeMP‐1 (RvY_06210 product) of Ramazzottius varieornatus strain YOKOZUNA‐1, residues 21–316, without the predicted 20-residue secretory signal peptide; After TEV cleavage one G of the recognition site probably stays at the N-terminus (surmised); also called RvY_06210 product; Tar‐fer; source: E. coli Shuffle T7, purified (HiTrap TALON, TEV protease, HisTrap flowthrough, Superdex 200 SEC); not …
binding result [2]: binds
